From PMC12239786, “SARS-CoV-2 RNA-binding protein suppresses extracellular miRNA release” come the findings set out here.

The target of one data set is His-Nsp9 (SARS-CoV-2, UniProt P0DTD1 4141-4253). As to the kind of experiment: fluorescence polarization; 100 nM RNA; FP: 20 mM HEPES pH 7.0, 150 mM NaCl, 2 mM MgCl2, 10 mM DTT, 1 U/ul RiboLock, 5 min at room temperature; NMR: 20 mM HEPES pH 7.0, 15 mM NaCl, 0.5 mM TCEP, 0.02%. The conditions noted are these: protein: recombinant; tags: His; chain copies: 2; label: 3' Cy3.

Data set [1] concerns the target NCL (RNA-binding domain on protein array) (human, UniProt P19338 307-647). Briefly: protein microarray; FP: 20 mM HEPES pH 7.0, 150 mM NaCl, 2 mM MgCl2, 10 mM DTT, 1 U/ul RiboLock, 5 min at room temperature; NMR: 20 mM HEPES pH 7.0, 15 mM NaCl, 0.5 mM TCEP, 0.02%. The conditions noted are these: protein: recombinant; label: 5' biotin.
In data set [2] the target is AUF1 (RNA-binding domain on protein array) (human, UniProt Q14103 97-261). The data set is described as above. The conditions noted are these: protein: recombinant; label: 5' biotin.
Sequence of AUF1 (RNA-binding domain on protein array) (Q14103 97-261): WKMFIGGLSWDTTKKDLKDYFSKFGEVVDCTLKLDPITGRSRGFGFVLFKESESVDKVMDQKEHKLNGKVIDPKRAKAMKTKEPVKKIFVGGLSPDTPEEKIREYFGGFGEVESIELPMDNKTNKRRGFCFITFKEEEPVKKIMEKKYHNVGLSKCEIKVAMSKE

Sequence of NCL (RNA-binding domain on protein array) (P19338 307-647): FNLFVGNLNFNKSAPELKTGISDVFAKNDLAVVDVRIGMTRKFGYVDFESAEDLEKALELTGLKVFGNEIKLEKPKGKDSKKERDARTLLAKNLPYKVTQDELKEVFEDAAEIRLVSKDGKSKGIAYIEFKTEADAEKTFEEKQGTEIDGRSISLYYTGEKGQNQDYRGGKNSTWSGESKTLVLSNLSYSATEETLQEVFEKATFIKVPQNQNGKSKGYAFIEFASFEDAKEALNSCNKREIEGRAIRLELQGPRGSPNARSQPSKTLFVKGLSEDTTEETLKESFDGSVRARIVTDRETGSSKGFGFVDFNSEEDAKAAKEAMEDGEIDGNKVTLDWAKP

As to UGAGGUAGUAGGUUGUGUGGUU (ssRNA, 5' phosphate) [let-7b-Cy3], in the data set with His-Nsp9, the Kd was approximately 15 nM. The same measure, in the same setting: to CAGUGCAAUGAUGAAAGGGCAU (ssRNA, 5' phosphate) [miR-130b-Cy3] belongs approximately 63 nM. Take UGAGGUAGUAGGUUGUGUGGUU (ssRNA) [let-7b-biotin]: the binding result in data set [1] and in data set [2] was “binds” each time.

On to UAGCUUAUCAGACUGAUGUUGA (ssRNA, 5' phosphate) [miR-21-Cy3], for which the binding result with His-Nsp9 is “no binding”. Still for that read-out and setting: the value for UGAGGUAGUAGGUUGCCAUUAU (ssRNA, 5' phosphate) [mutant let-7b-Cy3] was “no binding”.
